The values that follow come from article PMC11890865.

In general, stoichiometry N refers to a count of units in the complex or per binding partner.

What all share (assay): cryo-EM structure; ZorAB complex co-expressed from one operon and co-purified in LMNG; TBS (100 mM Tris, 150 mM NaCl, 1 mM EDTA, pH 8.0) plus 0.02% LMNG; Quantifoil Au grids, Titan Krios G4 at 300 kV
Assay [1] concerns the target ZorB II from Sulfuricurvum kujiense DSM 16994 (Zorya type II) (Sulfuricurvum kujiense DSM 16994).
In assay [2] the target is ZorA I from Shewanella sp. ANA-3 (Zorya type I) (Shewanella sp. strain ANA-3).
Assay [3] has as its target ZorA II from Sulfuricurvum kujiense DSM 16994 (Zorya type II) (Sulfuricurvum kujiense DSM 16994).
The target of assay [4] is ZorB I from Shewanella sp. ANA-3 (Zorya type I) (Shewanella sp. strain ANA-3).

Turning to “ZorB II from Sulfuricurvum kujiense DSM 16994 (Zorya type II) (natural protein)”, the stoichiometry N in assay [1] is 2. Turning to “ZorA I from Shewanella sp. ANA-3 (Zorya type I) (natural protein)”, the stoichiometry N in assay [2] turned out to be 5.

With “ZorA II from Sulfuricurvum kujiense DSM 16994 (Zorya type II) (natural protein)”, the stoichiometry N in assay [3] worked out at 5. Take “ZorB I from Shewanella sp. ANA-3 (Zorya type I) (natural protein)”: the stoichiometry N in assay [4] is 2.
